Source: PMC10786891, “Massively parallel profiling of RNA-targeting CRISPR-Cas13d”

T1: EsCas13d, nuclease-dead (Eubacterium siraeum, UniProt B0MS50, R295A;H300A;R849A;H854A)
T1 sequence: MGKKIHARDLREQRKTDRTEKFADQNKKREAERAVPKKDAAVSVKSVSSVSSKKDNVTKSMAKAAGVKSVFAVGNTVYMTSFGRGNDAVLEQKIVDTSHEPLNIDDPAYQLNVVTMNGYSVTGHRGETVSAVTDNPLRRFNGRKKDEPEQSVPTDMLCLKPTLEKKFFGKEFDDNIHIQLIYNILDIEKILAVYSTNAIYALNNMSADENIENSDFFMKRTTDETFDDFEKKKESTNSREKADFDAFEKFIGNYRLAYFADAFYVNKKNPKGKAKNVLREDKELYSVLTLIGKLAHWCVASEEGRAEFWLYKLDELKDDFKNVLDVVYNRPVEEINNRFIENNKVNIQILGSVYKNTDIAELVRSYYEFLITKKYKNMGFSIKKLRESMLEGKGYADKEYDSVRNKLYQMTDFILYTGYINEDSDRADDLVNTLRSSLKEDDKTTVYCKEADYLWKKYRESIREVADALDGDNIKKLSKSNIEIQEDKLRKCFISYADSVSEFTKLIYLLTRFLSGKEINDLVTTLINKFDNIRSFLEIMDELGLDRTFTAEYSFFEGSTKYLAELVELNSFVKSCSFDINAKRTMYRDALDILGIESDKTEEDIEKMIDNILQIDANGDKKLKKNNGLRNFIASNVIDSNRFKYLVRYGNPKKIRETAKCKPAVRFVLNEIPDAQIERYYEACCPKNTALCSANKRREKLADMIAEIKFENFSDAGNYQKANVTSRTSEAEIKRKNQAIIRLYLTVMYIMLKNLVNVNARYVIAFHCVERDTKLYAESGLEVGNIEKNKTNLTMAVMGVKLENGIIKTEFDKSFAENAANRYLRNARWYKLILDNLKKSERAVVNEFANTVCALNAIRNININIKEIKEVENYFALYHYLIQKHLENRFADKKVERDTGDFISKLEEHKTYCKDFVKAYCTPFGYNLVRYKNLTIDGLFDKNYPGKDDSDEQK

B1: target 1 complement block 10-13 (mixed)
RNA 1: CACCCGUGCAAAAAUGCAGGGGUCUAAAACUGAGCGGAUAACCUCUCUAUGG
RNA 2: GGGAAUGGAUCCACAUCUACGAAUUCGUACCAUAGAGACCAAAUCCGCUCACCGAGAUCGGAAGAGCACACGU
B2: target 1 MT 5'PFS GGG 3'PFS CUA (mixed)
RNA 1: CACCCGUGCAAAAAUGCAGGGGUCUAAAACUGAGCGGAUAACCUCUCUAUGG
RNA 2: GGGAAUGGAUCCACAUCUACGAAUUCGGGCCAUAGAGAGGUUAUCCGCUCACUAAGAUCGGAAGAGCACACGU
B3: target 1 MT 5'PFS UCG 3'PFS UUG (mixed)
RNA 1: CACCCGUGCAAAAAUGCAGGGGUCUAAAACUGAGCGGAUAACCUCUCUAUGG
RNA 2: GGGAAUGGAUCCACAUCUACGAAUUCUCGCCAUAGAGAGGUUAUCCGCUCAUUGAGAUCGGAAGAGCACACGU
B4: target 1 insU 3' of 17,insU 3' of 12 (mixed)
RNA 1: CACCCGUGCAAAAAUGCAGGGGUCUAAAACUGAGCGGAUAACCUCUCUAUGG
RNA 2: GGGAAUGGAUCCACAUCUACGAAUUCGUACCAUAGUAGAGGUUUAUCCGCUCACCGAGAUCGGAAGAGCACACGU
B5: target 1 MT 5'PFS AGG 3'PFS CGA (mixed)
RNA 1: CACCCGUGCAAAAAUGCAGGGGUCUAAAACUGAGCGGAUAACCUCUCUAUGG
RNA 2: GGGAAUGGAUCCACAUCUACGAAUUCAGGCCAUAGAGAGGUUAUCCGCUCACGAAGAUCGGAAGAGCACACGU
B6: target 1 MT 5'PFS UCG 3'PFS UUC (mixed)
RNA 1: CACCCGUGCAAAAAUGCAGGGGUCUAAAACUGAGCGGAUAACCUCUCUAUGG
RNA 2: GGGAAUGGAUCCACAUCUACGAAUUCUCGCCAUAGAGAGGUUAUCCGCUCAUUCAGAUCGGAAGAGCACACGU
B7: target 1 MT 5'PFS UCG 3'PFS CUC (mixed)
RNA 1: CACCCGUGCAAAAAUGCAGGGGUCUAAAACUGAGCGGAUAACCUCUCUAUGG
RNA 2: GGGAAUGGAUCCACAUCUACGAAUUCUCGCCAUAGAGAGGUUAUCCGCUCACUCAGAUCGGAAGAGCACACGU
B8: target 1 MT 5'PFS UGU 3'PFS UCU (mixed)
RNA 1: CACCCGUGCAAAAAUGCAGGGGUCUAAAACUGAGCGGAUAACCUCUCUAUGG
RNA 2: GGGAAUGGAUCCACAUCUACGAAUUCUGUCCAUAGAGAGGUUAUCCGCUCAUCUAGAUCGGAAGAGCACACGU
B9: target 1 MT 5'PFS GGA 3'PFS ACA (mixed)
RNA 1: CACCCGUGCAAAAAUGCAGGGGUCUAAAACUGAGCGGAUAACCUCUCUAUGG
RNA 2: GGGAAUGGAUCCACAUCUACGAAUUCGGACCAUAGAGAGGUUAUCCGCUCAACAAGAUCGGAAGAGCACACGU
B10: target 1 MT 5'PFS GGG 3'PFS CUG (mixed)
RNA 1: CACCCGUGCAAAAAUGCAGGGGUCUAAAACUGAGCGGAUAACCUCUCUAUGG
RNA 2: GGGAAUGGAUCCACAUCUACGAAUUCGGGCCAUAGAGAGGUUAUCCGCUCACUGAGAUCGGAAGAGCACACGU
B11: target 1 insC 3' of 19,insA 3' of 12 (mixed)
RNA 1: CACCCGUGCAAAAAUGCAGGGGUCUAAAACUGAGCGGAUAACCUCUCUAUGG
RNA 2: GGGAAUGGAUCCACAUCUACGAAUUCGUACCAUCAGAGAGGAUUAUCCGCUCACCGAGAUCGGAAGAGCACACGU
B12: target 1 MT 5'PFS GGG 3'PFS CUU (mixed)
RNA 1: CACCCGUGCAAAAAUGCAGGGGUCUAAAACUGAGCGGAUAACCUCUCUAUGG
RNA 2: GGGAAUGGAUCCACAUCUACGAAUUCGGGCCAUAGAGAGGUUAUCCGCUCACUUAGAUCGGAAGAGCACACGU
B13: target 1 MT 5'PFS AAG 3'PFS UAU (mixed)
RNA 1: CACCCGUGCAAAAAUGCAGGGGUCUAAAACUGAGCGGAUAACCUCUCUAUGG
RNA 2: GGGAAUGGAUCCACAUCUACGAAUUCAAGCCAUAGAGAGGUUAUCCGCUCAUAUAGAUCGGAAGAGCACACGU
B14: target 1 MT 5'PFS UCG 3'PFS CUG (mixed)
RNA 1: CACCCGUGCAAAAAUGCAGGGGUCUAAAACUGAGCGGAUAACCUCUCUAUGG
RNA 2: GGGAAUGGAUCCACAUCUACGAAUUCUCGCCAUAGAGAGGUUAUCCGCUCACUGAGAUCGGAAGAGCACACGU
B15: target 1 MT 5'PFS GGA 3'PFS ACG (mixed)
RNA 1: CACCCGUGCAAAAAUGCAGGGGUCUAAAACUGAGCGGAUAACCUCUCUAUGG
RNA 2: GGGAAUGGAUCCACAUCUACGAAUUCGGACCAUAGAGAGGUUAUCCGCUCAACGAGAUCGGAAGAGCACACGU
B16: target 1 MT 5'PFS CUG 3'PFS CGU (mixed)
RNA 1: CACCCGUGCAAAAAUGCAGGGGUCUAAAACUGAGCGGAUAACCUCUCUAUGG
RNA 2: GGGAAUGGAUCCACAUCUACGAAUUCCUGCCAUAGAGAGGUUAUCCGCUCACGUAGAUCGGAAGAGCACACGU
B17: target 1 MT 5'PFS UCG 3'PFS UUA (mixed)
RNA 1: CACCCGUGCAAAAAUGCAGGGGUCUAAAACUGAGCGGAUAACCUCUCUAUGG
RNA 2: GGGAAUGGAUCCACAUCUACGAAUUCUCGCCAUAGAGAGGUUAUCCGCUCAUUAAGAUCGGAAGAGCACACGU
B18: target 1 MT 5'PFS GGG 3'PFS CUC (mixed)
RNA 1: CACCCGUGCAAAAAUGCAGGGGUCUAAAACUGAGCGGAUAACCUCUCUAUGG
RNA 2: GGGAAUGGAUCCACAUCUACGAAUUCGGGCCAUAGAGAGGUUAUCCGCUCACUCAGAUCGGAAGAGCACACGU
B19: target 1 MT 5'PFS CUG 3'PFS CGG (mixed)
RNA 1: CACCCGUGCAAAAAUGCAGGGGUCUAAAACUGAGCGGAUAACCUCUCUAUGG
RNA 2: GGGAAUGGAUCCACAUCUACGAAUUCCUGCCAUAGAGAGGUUAUCCGCUCACGGAGAUCGGAAGAGCACACGU
B20: target 1 MT 5'PFS GUC 3'PFS AAU (mixed)
RNA 1: CACCCGUGCAAAAAUGCAGGGGUCUAAAACUGAGCGGAUAACCUCUCUAUGG
RNA 2: GGGAAUGGAUCCACAUCUACGAAUUCGUCCCAUAGAGAGGUUAUCCGCUCAAAUAGAUCGGAAGAGCACACGU
B21: target 1 MT 5'PFS GGA 3'PFS ACC (mixed)
RNA 1: CACCCGUGCAAAAAUGCAGGGGUCUAAAACUGAGCGGAUAACCUCUCUAUGG
RNA 2: GGGAAUGGAUCCACAUCUACGAAUUCGGACCAUAGAGAGGUUAUCCGCUCAACCAGAUCGGAAGAGCACACGU
B22: target 1 MT 5'PFS UAU 3'PFS AUA (mixed)
RNA 1: CACCCGUGCAAAAAUGCAGGGGUCUAAAACUGAGCGGAUAACCUCUCUAUGG
RNA 2: GGGAAUGGAUCCACAUCUACGAAUUCUAUCCAUAGAGAGGUUAUCCGCUCAAUAAGAUCGGAAGAGCACACGU
B23: target 1 MT 5'PFS UAU 3'PFS AUC (mixed)
RNA 1: CACCCGUGCAAAAAUGCAGGGGUCUAAAACUGAGCGGAUAACCUCUCUAUGG
RNA 2: GGGAAUGGAUCCACAUCUACGAAUUCUAUCCAUAGAGAGGUUAUCCGCUCAAUCAGAUCGGAAGAGCACACGU
B24: target 1 MT 5'PFS GGA 3'PFS ACU (mixed)
RNA 1: CACCCGUGCAAAAAUGCAGGGGUCUAAAACUGAGCGGAUAACCUCUCUAUGG
RNA 2: GGGAAUGGAUCCACAUCUACGAAUUCGGACCAUAGAGAGGUUAUCCGCUCAACUAGAUCGGAAGAGCACACGU

These binders were tested against T1, EsCas13d, nuclease-dead (assay: crRNA (strand 1, pre-loaded); Mg2+; 40 mM Tris-HCl pH 7.5, 150 mM NaCl, 6 mM MgCl2, 1 mM DTT, 0.1% Tween-20, 0.2 mg/ml BSA; 25 C; 10 min per concentration, then washed). Conditions: tags: His6-TwinStrep-SUMO cleaved; N-terminal SNAP kept (SNAP-Surface 488); label: 3' end held by stalled T7 RNA polymerase.

B1 was tested. Which Kd did it give?
The Kd was 99 ± 30 nM.

With B2 as the binder, how does the Kd read?
Its Kd is 25.1 ± 5.2 nM.

For B3, which Kd is on record?
The Kd was 43 ± 8 nM.

For B4, which Kd is on record?
The Kd was 16.4 ± 3.2 nM.

With B5 as the binder, how does the Kd read?
Its Kd is roughly 73 nM.

For B6, which Kd is on record?
The Kd was 37 ± 12.5 nM.

With B7 as the binder, how does the Kd read?
The Kd was 45.5 ± 20 nM.

Which Kd does the source give for B8 here?
Its Kd is 28.5 ± 6.5 nM.

Which Kd does the source give for B9 here?
The Kd was 27 ± 5 nM.

For B10, which Kd is on record?
The Kd was 14.7 ± 2.1 nM.

Which Kd does the source give for B11 here?
The Kd was 69 ± 9 nM.

For B12, which Kd is on record?
Its Kd is 24.5 ± 9 nM.

How did the Kd turn out when B13 was run?
The Kd was 18.5 ± 5 nM.

How did the Kd turn out when B14 was run?
Its Kd is 57.5 ± 23 nM.

How did the Kd turn out when B15 was run?
Its Kd is 20.5 ± 4 nM.

B16 was tested. Which Kd did it give?
Its Kd is 21 ± 6.5 nM.

With B17 as the binder, how does the Kd read?
The Kd was 31.5 ± 7.5 nM.

Which Kd does the source give for B18 here?
The Kd was 23 ± 7 nM.

B19 was tested. Which Kd did it give?
Its Kd is 18.6 ± 3.55 nM.

B20 was tested. Which Kd did it give?
The Kd was 25.5 ± 6.5 nM.

For B21, which Kd is on record?
The Kd was 27.3 ± 7.15 nM.

Which Kd does the source give for B22 here?
Its Kd is 43 ± 15.5 nM.

With B23 as the binder, how does the Kd read?
The Kd was roughly 65 nM.

How did the Kd turn out when B24 was run?
Its Kd is 15.8 ± 2.95 nM.
